Literature values in US20130251731A1, “Tau Acetylation in the Pathogenesis of Alzheimers Disease and Other Related Tauopathies” (THE TRUSTEES OF THE UNIVERSITY OF PENNSYLVANIA, priority 2012, published 2013).
Read-outs that look alike come from different tables or passages of the source.

Test system: histones and microtubules

B1: αTAT-1: cytoplasmic α-tubulin acetyltransferase (protein, UniProt Q5SQI0 1-421, looked up)
Alpha-tubulin …: MEFPFDVDALFPERITVLDQHLRPPARRPGTTTPARVDLQQQIMTIIDELGKASAKAQNLSAPITSASRMQSNRHVVYILKDSSARPAGKGAIIGFIKVGYKKLFVLDDREAHNEVEPLCILDFYIHESVQRHGHGRELFQYMLQKERVEPHQLAIDRPSQKLLKFLNKHYNLETTVPQVNNFVIFEGFFAHQHRPPAPSLRATRHSRAAAVDPTPAAPARKLPPKRAEGDIKPYSSSDREFLKVAVEPPWPLNRAPRRATPPAHPPPRSSSLGNSPERGPLRPFVPEQELLRSLRLCPPHPTARLLLAADPGGSPAQRRRTRGTPPGLVAQSCCYSRHGGVNSSSPNTGNQDSKQGEQETKNRSASEEQALSQDGSGEKPMHTAPPQAPAPPAQSWTVGGDILNARFIRNLQERRSTRPW
In the case of B1, the Kcat (Shida et al., 2010) is given as 0.000617 s⁻¹, the Kcat (substrate as listed (H4-21, H3p19, H3, microtubules)) is given as 0.000617 s⁻¹ and the Km (substrate as listed (H4-21, H3p19, H3, microtubules), read-out: Km [protein]) is given as 1.6 µM.
